Experiment [1] has as its target HER3 (Homo sapiens, UniProt P21860). The experiment in a line: Reduction in expression of HER3 on cell surface (internalization), flow cytometry in HCC1569. To be noted: HCC1569, 10 ug/mL, 37 C, 1 hr. It is filed as cell-based. Details: host or cells: HCC1569 (human breast cancer cell line). Here is the method:
HER3 internalization by U1-59 and each antibody-drug conjugate was evaluated by flow cytometry. 70,000 living cells of HCC1569 (from ATCC) were suspended in 0.5 mL of RPMI1640 (Invitrogen Corp., #31870-025) (containing 10% FBS (Invitrogen Corp., #10270-106 or PAN Biotech GmbH, #1505-P131304) and 2 mM glutamine (Invitrogen Corp., #25030-024)) and inoculated to each well of a 24-well plate. The cells were cultured for 4 days, and the medium was replaced with 0.5 mL of a fresh medium before the start of the internalization test. 5 ug of the antibody or each antibody-drug conjugate was added to 0.5 mL in each well of the 24-well plate such that the final concentration was 10 ug/mL. The cells were cultured for 1 hour at 37 C in the presence of the antibody or the antibody-drug conjugate. […]
For flow cytometry analysis, the cells were washed once with PBS and dissociated from the plate using 5 mM EDTA (100 uL/well) dissolved in ACCUTASE® SOLUTION (Millipore Corp., SCR005) or PBS. […] The fluorescence signals of living cells were measured using Accuri C6 Flow cytometer. […]
In order to quantify HER3-specific signals, values of cells stained with only the secondary antibody or 7-AAD were subtracted from FL-2 values of cells stained with the primary antibody and the secondary antibody, and further 7-AAD. […]

Experiment [2] relates to human melanoma cell line HT-144. The experiment in a line: Antitumor test, human melanoma HT-144 in NMRI nude mice. It is filed as in vivo, mouse. To be noted: 25 mg/kg subcutaneously twice a week. Here is the method: Five- to 6-week-old female NMRI nude mice having a body weight of 22 to 26 g after acclimation were used. The mice were placed in individually ventilated cages (IVC, 4 mice at maximum per cage) which were kept at room temperature and a constant humidity. After randomization, the body weights of the mice were measured every other day, and the behaviors of the animals were recorded every day.
5×10^6 cells of a human melanoma cell line HT-144 (HTB-63) from ATCC were suspended in a solution prepared from 50 uL of PBS and Matrigel (PBS: PAA #H21-002, Matrigel: BD #354230) mixed at a ratio of 1:1, and subcutaneously transplanted to the right side area of the body of each NMRI nude mouse using a 29 G needle.
The measurement of the body weights and the tumor sizes and the measurement and calculation of the tumor volumes were carried out in the same manner as Test Example 6.
At Day 22 when the tumor size reached about 150 mm^3, 80 animals were randomly divided into 8 groups on the basis of their tumor sizes. At the same day, U1-59 or the antibody-drug conjugate (3), (10), or (13) or PBS for a control group were administered into the tail vein of each animal at the following doses.
Administration group: PBS was intravenously injected once a week at the same dose as the antibody-drug conjugate.
Administration group: U1-59 was subcutaneously injected twice a week at 25 mg/kg. […]

For the substance “U1-59: anti-HER3 human antibody; heavy and light chain variable regions SEQ ID NOs: 70 and 72; produced per WO 2007/077028”, the “reduction in HER3 expression on cell surface” value in experiment [1] was “about 50%”. Further, the “day after transplantation at which group was euthanized because tumor sizes exceeded acceptable maximum level” value in experiment [2] amounted to 52 days.

Source of the values: patent US12685781B2, “Anti-HER3 antibody-drug conjugate” (DAIICHI SANKYO COMPANY, LIMITED, priority 2014, dated 2026).
